{
  "source": "patent US20250237651A1",
  "about": "(ASAHI KASEI, published 2025)",
  "binders": {"B1": {"name": "Antibody NG1 (antibody, V domains shown)", "VH": "EVQLQQSGAELVKPGASVKLSCTASGFNIKDTYIYWVKQRPEQGLEWIGRIDPANGHTKCDPKFQGKATITSDTSSNTAYLQLNSLTSEDTAVYYCSKGYFHYWGQGTTLTVSS", "VL": "DIQMTQSPSSLSASLGERVSLTCRASQEISGYLSWLQQKPDGTIKRLIYAASTLDSGVPKRFSGSRSGSDYSLTISSLESEDFADYYCQQYDSYPWTFGGGTKLEIK", "notes": "Mouse hybridoma monoclonal antibody raised against polypeptide 1; detected with an anti-IgG antibody; HRP-labelled or gold-colloid-labelled when used as detection antibody; also called Antibody species A"}},
  "key": {"[1]": {"biological_target": "T1, Ribosomal protein L7/L12 of Neisseria meningitidis (in extracted sample solution of the bacteria) (Neisseria meningitidis, UniProt A1KRG5 1-123)", "T1 construct": "also called Neisseria meningitidis L7/L12", "T1 sequence": "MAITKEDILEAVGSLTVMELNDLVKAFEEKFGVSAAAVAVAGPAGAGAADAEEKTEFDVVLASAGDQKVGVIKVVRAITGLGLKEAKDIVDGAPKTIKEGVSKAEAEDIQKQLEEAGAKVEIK", "assay": "sandwich ELISA, capture NG3, HRP-labelled NG1, N. meningitidis extract"}, "[2]": {"biological_target": "T2, Ribosomal protein L7/L12 of Neisseria gonorrhoeae (in extracted sample solution of the bacteria) (Neisseria gonorrhoeae, UniProt B4RQW1 1-123)", "T2 construct": "also called Neisseria gonorrhoeae L7/L12; Neisseria gonorrhoeae-derived antigen", "T2 sequence": "T1 sequence with E115A", "assay": "sandwich ELISA, primary (capture) NG1, HRP-labelled secondary NG3, N. gonorrhoeae extract 1e6 cfu/mL; Absorbance difference A 1.0 or greater"}, "[3]": {"biological_target": "T3, Polypeptide 4 (part of Neisseria gonorrhoeae L7/L12 lacking amino acid residues 102 to 123) (Neisseria gonorrhoeae, UniProt A1KRG5 1-101)", "T3 construct": "Purified as a tagged fusion protein", "T3 sequence": "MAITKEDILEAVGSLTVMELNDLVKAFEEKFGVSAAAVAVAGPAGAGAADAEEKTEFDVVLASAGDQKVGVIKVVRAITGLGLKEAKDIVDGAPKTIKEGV", "assay": "ELISA, polypeptide solid-phased at 2 ug/mL, HRP-labeled anti-IgG"}, "[4]": {"biological_target": "T4, Polypeptide 5 (all of the L7/L12 amino acid sequence of Neisseria meningitidis) (Neisseria meningitidis, UniProt A1KRG5 1-123)", "T4 construct": "Differs from Neisseria gonorrhoeae L7/L12 only at residue 115 (glutamic acid instead of alanine); Purified as a tagged fusion protein", "T4 sequence": "T1 sequence", "assay": "ELISA, polypeptide solid-phased at 2 ug/mL, HRP-labeled anti-IgG"}, "[5]": {"biological_target": "T5, Polypeptide 2 (part of Neisseria gonorrhoeae L7/L12 lacking amino acid residues 1 to 14) (Neisseria gonorrhoeae, UniProt B4RQW1 15-123)", "T5 construct": "Purified as a tagged fusion protein", "assay": "ELISA, polypeptide solid-phased at 2 ug/mL, antibody 100 ng/ml; + = absorbance 450 nm 0.1 or greater"}, "[6]": {"biological_target": "T6, Polypeptide 3 (part of Neisseria gonorrhoeae L7/L12 lacking amino acid residues 1 to 63) (Neisseria gonorrhoeae, UniProt B4RQW1 64-123)", "T6 construct": "Purified as a tagged fusion protein", "T6 sequence": "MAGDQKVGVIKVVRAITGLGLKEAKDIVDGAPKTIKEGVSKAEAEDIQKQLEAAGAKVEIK", "assay": "ELISA, polypeptide solid-phased at 2 ug/mL, antibody 100 ng/ml; + = absorbance 450 nm 0.1 or greater"}, "[7]": {"biological_target": "T7, Polypeptide 1 (all of the amino acid sequence of ribosomal protein L7/L12 of Neisseria gonorrhoeae) (Neisseria gonorrhoeae, UniProt B4RQW1 1-123)", "T7 construct": "Expressed in E. coli and purified as a fusion protein through a vector-derived tag", "T7 sequence": "T1 sequence with E115A", "assay": "ELISA, polypeptide solid-phased at 2 ug/mL, antibody 100 ng/ml; + = absorbance 450 nm 0.1 or greater"}},
  "note": "Residue numbers refer to the chain shown, from its start.",
  "data": [
    {"binder": "B1", "values": [
      {"measurement": "binding result", "setting": "[1]", "result": "no binding"},
      {"measurement": "binding result", "setting": "[2]", "result": "binds"},
      {"measurement": "binding result", "setting": "[3]", "result": "no binding"},
      {"measurement": "binding result", "setting": "[4]", "result": "no binding"},
      {"measurement": "binding result", "setting": "[5]", "result": "binds"},
      {"measurement": "binding result", "setting": "[6]", "result": "binds"},
      {"measurement": "binding result", "setting": "[7]", "result": "binds"}
    ]}
  ]
}
